Changes are numbered by the printed parent chain. Names and notes keep the numbering of the source.
B1: 14G04 (antibody, human IgG1, V domains shown)
VH: QVQLQQSGAELVRSGASVRLSCTASGFNIKDYYIHWVKQRPEQGLEWIGWIDPENGDTEYAPRFQDKATMTADTSSNTAYLQLSSLTSEDTAVYYCNGWLLSGNGMDYWGQGTSVTVSS
VL: DIVMTQSHKFMSTSVGDRVSITCKASQDVGTAVAWYQQKPGQSPKLLIYWASTRHTGVPDRFTGSGSGTDFTLTISNVQSEDLADYFCQQYSSYPTFGGGTKLEIK
notes: Chimeric: mouse variable regions on human IgG1 LALA (L234A/L235A); also called 014G04
B2: 7G04 (antibody, human IgG1, V domains shown)
VH: QVQMKESGAELVRPGASVKLSCKALGYTFTDYEIQWVKQTPVHGLEWIGGIHPGSSGIVYNQKFKGKATLTADKSSSTAYMELSSLTSEDSAVYYCTRGGGYDGAWFAYWGQGSLVTVSA
VL: ETTVTQSPASLSMAIGEKVTIRCITSTDIDDDMNWYQQKPGEPPKLLISEGNTLRPGVPSRFSSSGYGTDFVFTIENMLSEDVADYYCLQSDNLPFTFGSGTKLEIK
notes: Chimeric: mouse variable regions on human IgG1 LALA (L234A/L235A); also called 07G04; 007G04
B3: 12G04 (antibody, human IgG1, V domains shown)
VH: EVQLVESGGGLVQPGESLKLSCESNEYEFPSHDMSWVRKTPEKRLELVAAINSDGGYTYYPDTMERRFIISRDNTKKTLYLQMSSLRSEDTALYYCARHGYDYDEEGAWFAYWGQGTLVTVSA
VL: B2 VL with S65T, T74S
notes: Chimeric: mouse variable regions on human IgG1 LALA (L234A/L235A); also called 012G04
B4: 9G04 (antibody, human IgG1, V domains shown)
VH: QVQLQQSGAELVRPGASVTLSCKASGYTFTDYEMHWVKQTPVHGLEWIGTVDPETGGTAFNQKFKDKASLTADKSSSTVYMELRSLTSEDSAVYYCSRGYGNYGAWFAYWGQGTLVTVSA
VL: B2 VL with M13V, I15T
notes: Chimeric: mouse variable regions on human IgG1 LALA (L234A/L235A); also called 09G04; 009G04
B5: 23G04 (antibody, human IgG1, V domains shown)
VH: QVQLQQPGTELVKPGASVKLSCKASGYTFTSYWMHWVKQRPGQGLEWIGEIDPSDSHTNYNQKFKGKATLTVDKSSSTAYMQLSSLTSEDSAVYYCAPIYYGLDNWGQGTTLTVSS
VL: DIVLTQSQKFMSTSVGDRVSVTCKASQNVGTNVAWYQQKPGQSPKALIYSASYRYSGVPDRFTGSGSGTDFTLTISNVQSEDLAEYFCQQYNSYPYTFGGGTKLEIK
notes: Chimeric: mouse variable regions on human IgG1 LALA (L234A/L235A); also called 023G04
B6: 10G04 (antibody, human IgG1, V domains shown)
VH: DVQLQESGPELVKPGASVKISCKASGYTFTDYNMHWVKQSHGKSLEWIGYIYPYNGGTGYNQKFKSKATLTVDNSSSTAYMELRSLTSEDSAVYYCARDGGYDVYFDYWGQGTTLTVSS
VL: DVVMTQTPLSLPVSLGDQASISCRSSQSLVHSNGNTYLHWYLQKPGQSPKLLIYKVSNRFSGVPDRFSGSGSGTDFTLKISRVEAEDLGVYYCFQGSHVPWTFGGGTKLEIK
notes: Chimeric: mouse variable regions on human IgG1 LALA (L234A/L235A); also called 010G04
B7: 32G04 (antibody, human IgG1, V domains shown)
VH: EEKLEESGGGLVQPGGSMKLSCVASGFTFSNYWMNWVRQSPEKGLEWVAEIRLKSNNYATHYAESVKGRFTISRDDSKSSVYLQMNNLRAEDTGIYYCTPLLLRWGQGTTLTVSS
VL: ENVLTQSPAIMSASPGEKVTMTCRASSSLSSTYLHWYQQKSGASPKLWIYSTSNLASGVPARFSGSGSGTSYSLTISSVEAEDAATYYCQQYSGYPLTFGSGTKLEIK
notes: Chimeric: mouse variable regions on human IgG1 LALA (L234A/L235A); also called 032G04
B8: 18G04 (antibody, human IgG1, V domains shown)
VH: EVQLQQSGPELVKPGASVKISCETSGHTFTEYTMHWVKQSHGKSLEWIGGIYPNNGATKYNQKFKGKATLTVDKSSSTAYMELRSLTSEDSAVYYCARDRYDVWFAYWGQGTLVTVSA
VL: B2 VL with M78L, F96L, S100G
notes: Chimeric: mouse variable regions on human IgG1 LALA (L234A/L235A); also called 018G04
B9: 5G04 (antibody, human IgG1, V domains shown)
VH: QVQLQQSGAELVMPGASVKMSCKASGYTFTDYWMHWVKQRPGQGLEWIGAIDTSDSYTSYNQKFKGKATLTVDESSSTAYMQLSSLTSEDSAVYYCARDYYGSSTAWFAYWGQGTLVTVSA
VL: B2 VL with E76D
notes: Chimeric: mouse variable regions on human IgG1 LALA (L234A/L235A); also called 05G04; 005G04
B10: 21G04 (antibody, human IgG1, V domains shown)
VH: B5 VH with P7S, T9A
VL: B5 VL with D1E, I2T, V3T, L4V, Y96F, G100S
notes: Chimeric: mouse variable regions on human IgG1 LALA (L234A/L235A)
B11: 24G04 (antibody, human IgG1, V domains shown)
VH: B5 VH with P7S, T9A, T58A
VL: B5 VL with L4M, M11L, A46V, I75V, S93N, Y96L, G100A, I106L
notes: as for B10
B12: 22G04 (antibody, human IgG1, V domains shown)
VH: B5 VH with T9A, T58A, Y100H
VL: B5 VL with Y96L, G100A, I106L
notes: as for B10
B13: 25G04 (antibody, human IgG1, V domains shown)
VH: B5 VH with Q1E, P7S, T9A, T58A
VL: B5 VL with S80P, Y96L
notes: as for B10
B14: 17G04 (antibody, human IgG1, V domains shown)
VH: EVQLQQSGPELVKPGASVKISCKTSGYTFTEYTMHWVKQSHGKSLEWIGGIYPYNGGTAYNQKFKNKATLTVDISSNTAYMALRSLASDDSAVYYCASDYFYGDGYPWFTYWGQGTLVTVSA
VL: B2 VL with M13V, I15T, K39R, K45N, M78T, K103R
notes: as for B10

target: T1, human CD36 (on HEK 293 or SCC25 cells) (human, UniProt P16671 2-472); experiment: cell-based or functional assay
For Percent Fatty Acid Uptake Inhibition in this document: test concentration or dose not given here.

T1 sequence (P16671 2-472 limits assumed): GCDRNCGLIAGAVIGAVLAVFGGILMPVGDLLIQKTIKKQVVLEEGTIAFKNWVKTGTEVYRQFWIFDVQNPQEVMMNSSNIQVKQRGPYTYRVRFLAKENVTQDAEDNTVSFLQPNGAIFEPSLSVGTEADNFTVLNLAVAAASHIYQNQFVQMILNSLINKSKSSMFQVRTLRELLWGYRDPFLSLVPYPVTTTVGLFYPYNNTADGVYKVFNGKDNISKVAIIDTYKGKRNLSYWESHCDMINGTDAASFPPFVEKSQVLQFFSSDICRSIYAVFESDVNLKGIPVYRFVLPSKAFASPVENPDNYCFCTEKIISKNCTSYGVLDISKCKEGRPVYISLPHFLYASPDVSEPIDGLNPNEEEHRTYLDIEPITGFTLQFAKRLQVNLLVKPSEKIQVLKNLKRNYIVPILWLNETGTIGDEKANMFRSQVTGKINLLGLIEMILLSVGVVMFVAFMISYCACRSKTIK

Binder | Percent Fatty Acid Uptake Inhibition
B1 | 45.1%
B2 | 37.4%
B3 | 43.8%
B4 | 41.1%

target: T1, human CD36 (on HEK 293 or SCC25 cells); experiment: cell-based or functional assay; remark: another data set of the same source

Binder | IC50 of fatty acid uptake inhibition (BODIPY FL C16, HEK hCD36 cells)
B5 | 1 nM
B6 | 33 nM
B7 | 42 nM
B1 | 0.13 nM
B8 | 2.6 nM
B2 | 1 nM
B9 | > 1000 nM
B3 | 3.9 nM
B4 | 170 nM

target: T1, human CD36 (on HEK 293 or SCC25 cells); experiment: cell-based or functional assay; remark: another data set of the same source

Binder | IC50 of oxLDL uptake inhibition (DiI-oxLDL, SCC25 cells)
B1 | 0.35 nM
B2 | 0.27 nM

target: T1, human CD36 (on HEK 293 or SCC25 cells); experiment: FACS, SCC25 cells stably overexpressing human CD36

Binder | EC50
B6 | 3.3 nM
B7 | 1.88 nM
B1 | 0.41 nM
B2 | 0.68 nM
B3 | 0.39 nM
B4 | 0.41 nM

target: T1, human CD36 (on HEK 293 or SCC25 cells); experiment: FACS, HEK 293 cells transiently overexpressing CD36;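 also: antibody binding to transfected cells detected by flow cytometry with a fluorescent anti-human secondary antibody, EC50 from a four-parameter sigmoidal fit of mean fluorescence intensity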
Experimental: (§1) After transiently transfecting the HEK 293 cells with a CD36 expression construct, cells were treated with three-fold serial dilution of each candidate antibody (10 dilutions starting at 500 nM). […] After incubation with the cells, an anti-human fluorescently labelled antibody was added to the cell media, allowed to incubate further, and the unbound antibody was washed off of the cells. Subsequently, the cells were subjected to FACS analysis to determine antibody binding to the cells. The results were fitted to a sigmoidal titration curve. Using a nonlinear regression model, the EC₅₀ values for each antibody were calculated from the GeoMFI and MFI values using the log(agonist) versus response (four parameters) fitting on the data transformed according to X=Log[X] in GraphPad PRISM.

Binder | EC50
B10 | 0.36 nM
B11 | 0.26 nM
B12 | 1.25 nM
B13 | 0.74 nM
B5 | 0.3 nM
B6 | 0.77 nM
B7 | 0.94 nM
B1 | 1.47 nM
B14 | 1.25 nM
B2 | 0.48 nM
B3 | 0.31 nM
B4 | 0.5 nM

target: T2, nonhuman primate CD36 (on HEK 293 cells) (cynomolgus monkey / rhesus macaque, UniProt P16671 2-472 (human entry)); experiment: as above
T2 construct: also called non-human primate CD36 (cynomolgus)
T2 sequence (P16671 other isoform, or with tags, fused parts or gaps limits assumed): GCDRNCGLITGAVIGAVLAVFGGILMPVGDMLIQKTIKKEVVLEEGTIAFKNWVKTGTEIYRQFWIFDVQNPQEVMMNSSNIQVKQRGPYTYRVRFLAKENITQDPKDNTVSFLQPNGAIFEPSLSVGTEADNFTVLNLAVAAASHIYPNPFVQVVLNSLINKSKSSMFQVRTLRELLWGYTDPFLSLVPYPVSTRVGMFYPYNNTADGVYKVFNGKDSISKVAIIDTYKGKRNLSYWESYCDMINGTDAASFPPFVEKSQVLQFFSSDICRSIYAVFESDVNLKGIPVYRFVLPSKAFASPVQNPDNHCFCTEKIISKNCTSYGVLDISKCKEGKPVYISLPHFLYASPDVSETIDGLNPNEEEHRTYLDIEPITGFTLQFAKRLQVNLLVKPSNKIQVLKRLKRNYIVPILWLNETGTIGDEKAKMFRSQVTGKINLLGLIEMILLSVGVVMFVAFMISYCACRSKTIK
Experimental: as §1

Binder | EC50
B10 | 6.38 nM
B11 | 0.81 nM
B12 | 1.68 nM
B13 | 2.19 nM
B5 | 1.69 nM
B6 | 1.48 nM
B7 | 6.52 nM
B1 | 0.88 nM
B8 | 6.6 nM
B14 | 4.03 nM
B2 | 4.16 nM
B9 | 2.43 nM
B3 | 0.67 nM
B4 | 13.9 nM

target: T3, mouse CD36 (on HEK 293 cells) (mouse, UniProt Q08857 1-472); experiment: as above
T3 construct: also called Murine CD36
T3 sequence (Q08857 whole entry): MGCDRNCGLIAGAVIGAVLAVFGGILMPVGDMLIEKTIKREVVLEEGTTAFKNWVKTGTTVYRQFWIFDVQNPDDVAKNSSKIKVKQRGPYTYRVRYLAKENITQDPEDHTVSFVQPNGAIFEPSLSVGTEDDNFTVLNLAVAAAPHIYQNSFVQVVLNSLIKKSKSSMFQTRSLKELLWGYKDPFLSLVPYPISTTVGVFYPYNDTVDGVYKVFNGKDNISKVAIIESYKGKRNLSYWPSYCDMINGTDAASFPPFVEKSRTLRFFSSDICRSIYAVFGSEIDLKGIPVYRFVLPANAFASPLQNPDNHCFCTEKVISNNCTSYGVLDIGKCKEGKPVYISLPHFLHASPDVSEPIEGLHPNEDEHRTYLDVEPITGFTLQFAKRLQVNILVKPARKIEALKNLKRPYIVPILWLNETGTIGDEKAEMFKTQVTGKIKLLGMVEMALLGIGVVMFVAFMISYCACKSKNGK
Experimental: as §1

Binder | EC50
B6 | 16 nM
B7 | 5.14 nM
B1 | 1.57 nM
B8 | 14.7 nM
B14 | 9.31 nM
B2 | 3.73 nM
B9 | 5.03 nM
B3 | 1.2 nM
B4 | 12 nM

target: purified biotin-tagged human CD36 (human, UniProt P16671 30-439, limits assumed, biotin tag, site not stated); experiment: AlphaScreen competition; competitor 1G04 on acceptor beads;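 also: streptavidin donor beads excited at 680 nm release singlet oxygen, and the light signal needs a nearby acceptor bead, with 30 min donor-bead incubation at 25 °C in the dark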
Sequence (P16671 30-439 limits assumed): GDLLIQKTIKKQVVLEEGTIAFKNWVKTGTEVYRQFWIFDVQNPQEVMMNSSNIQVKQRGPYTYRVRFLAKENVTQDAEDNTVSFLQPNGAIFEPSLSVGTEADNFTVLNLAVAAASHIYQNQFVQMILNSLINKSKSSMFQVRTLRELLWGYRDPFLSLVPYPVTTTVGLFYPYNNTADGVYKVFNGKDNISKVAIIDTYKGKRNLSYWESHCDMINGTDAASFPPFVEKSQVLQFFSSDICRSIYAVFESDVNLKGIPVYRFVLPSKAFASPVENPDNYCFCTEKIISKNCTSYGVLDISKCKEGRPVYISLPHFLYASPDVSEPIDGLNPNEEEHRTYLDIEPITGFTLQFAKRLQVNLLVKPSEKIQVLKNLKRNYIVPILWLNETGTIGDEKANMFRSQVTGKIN

Binder | EC50
B10 | 0.45 nM
B11 | 0.29 nM
B12 | 0.53 nM
B13 | 0.29 nM
B5 | 0.28 nM
B7 | 1.46 nM
B1 | 0.31 nM
B8 | 15.6 nM
B14 | 0.52 nM
B2 | 0.95 nM
B9 | 0.02 nM
B3 | 0.78 nM
B4 | 2.06 nM

target: T4, human CD36 (His-tagged) (human, UniProt P16671 30-439); experiment: SPR (Biacore T200), His-captured CD36, bivalent analyte model
T4 construct: not shown: His tag
T4 sequence (P16671 30-439 limits assumed): as above

Binder | Kd | koff | kon
B1 | 2.3 nM | 0.0072 s⁻¹ | 3.1e+06 M⁻¹ s⁻¹
B2 | 4.9 nM | 0.0035 s⁻¹ | 710000 M⁻¹ s⁻¹

Source: US20250206836A1 (ONA THERAPEUTICS S L, published 2025)
